According to patent US20240262905A1 (PANDION OPERATIONS, published 2024):

T1: human DSG-3 (human, UniProt P32926 50-615, limits assumed)
T1 construct: Soluble analyte (Octet) and plate coat (ELISA); also called hDSG-3
T1 sequence (looked up): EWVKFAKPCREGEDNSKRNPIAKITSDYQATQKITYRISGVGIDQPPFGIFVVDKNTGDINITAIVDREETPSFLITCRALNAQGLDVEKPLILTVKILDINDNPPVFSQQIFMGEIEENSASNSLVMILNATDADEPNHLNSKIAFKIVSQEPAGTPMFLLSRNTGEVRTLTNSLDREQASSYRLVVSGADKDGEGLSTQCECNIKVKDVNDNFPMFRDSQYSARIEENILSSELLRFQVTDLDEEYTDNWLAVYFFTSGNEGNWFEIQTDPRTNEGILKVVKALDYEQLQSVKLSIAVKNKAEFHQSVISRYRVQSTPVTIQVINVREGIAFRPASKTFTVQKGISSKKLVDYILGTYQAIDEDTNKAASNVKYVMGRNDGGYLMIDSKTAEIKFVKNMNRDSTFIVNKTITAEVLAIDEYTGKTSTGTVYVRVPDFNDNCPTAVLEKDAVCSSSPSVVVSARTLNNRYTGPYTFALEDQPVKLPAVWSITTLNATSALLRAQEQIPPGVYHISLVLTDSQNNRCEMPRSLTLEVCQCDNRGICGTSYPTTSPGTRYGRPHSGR

T2: human CD25 (human, UniProt P01589 22-213, limits assumed)
T2 construct: construct not described
T2 sequence (looked up): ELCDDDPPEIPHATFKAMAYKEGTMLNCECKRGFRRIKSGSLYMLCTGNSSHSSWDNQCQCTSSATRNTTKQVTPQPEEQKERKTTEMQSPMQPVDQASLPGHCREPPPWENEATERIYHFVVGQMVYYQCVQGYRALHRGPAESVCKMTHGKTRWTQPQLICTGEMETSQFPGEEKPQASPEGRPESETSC

B1: PD1DSGAB1 (bispecific antibody)
heavy: QVQLVQSGAEVKKPGASVKVSCKASGYSFTTYYMHWVRQAPGQGLEWMGIINPSGGSTSYAQKFQGRVTMTRDTSTSTVYMELSSLRSEDTAVYYCASGWVYWGQGTLVTVSSASTKGPSVFPLAPSSKSTSGGTAALGCLVKDYFPEPVTVSWNSGALTSGVHTFPAVLQSSGLYSLSSVVTVPSSSLGTQTYICNVNHKPSNTKVDKKVEPKSCDKTHTCPPCPAPEAAGAPSVFLFPPKPKDTLMISRTPEVTCVVVDVSHEDPEVKFNWYVDGVEVHNAKTKPREEQYNSTYRVVSVLTVLHQDWLNGKEYKCKVSNKALPAPIEKTISKAKGQPREPQVYTLPPSREEMTKNQVSLTCLVKGFYPSDIAVEWESNGQPENNYKTTPPVLDSDGSFFLYSKLTVDKSRWQQGNVFSCSVMHEALHNHYTQKSLSLSPGGGGGSGGGGSGGGGSQSVLTQPPSVSGTPGQRVTISCSGSSSHIGSNYVYWYQQLPGTAPKILIYSNDQRPAGVPDRFSASKSGTSASLAISGLRSEDEADYYCAAWDDGQGGVFGGGTKLTVLGGGGSGGGGSGGGGSGGGGSQVQLQESGPGPVKPSGTLSLTCGVSGGSISSNHWWTWVRQPPGKGLEWIGEIYHNGSTFLNPSLKSRVTISVDKSNNQFSLKLTSVTAADTAVYYCARGWHRTGFRGYPSHWYFDLWGRGTLVSVSS
light: not shown
notes: Anti-PD-1 agonist human IgG1 with an SD1 anti-desmoglein scFv at the C-terminus of each heavy chain (PD-1 ML-N format)
B2: IL2DSGAB7 (other)
heavy: EVQLVESGGGLVQPGRSLRLSCAASGFTFDDYAMHWVRQAPGKGLEWVSGISWNSGSIDYADSVKGRFTISRDNAKNSLYLQMNSLRVEDTALYYCAKDGSRVFGVGGGFDFWGQGTMVTVSSASTKGPSVFPLAPSSKSTSGGTAALGCLVKDYFPEPVTVSWNSGALTSGVHTFPAVLQSSGLYSLSSVVTVPSSSLGTQTYICNVNHKPSNTKVDKKVEPKSCDKTHTCPPCPAPEAAGAPSVFLFPPKPKDTLMISRTPEVTCVVVDVSHEDPEVKFNWYVDGVEVHNAKTKPREEQYNSTYRVVSVLTVLHQDWLNGKEYKCKVSNKALPAPIEKTISKAKGQPREPQVYTLPPSREEMTKNQVSLTCLVKGFYPSDIAVEWESNGQPENNYKTTPPVLDSDGSFFLYSKLTVDKSRWQQGNVFSCSVMHEALHNHYTQKSLSLSPG
light: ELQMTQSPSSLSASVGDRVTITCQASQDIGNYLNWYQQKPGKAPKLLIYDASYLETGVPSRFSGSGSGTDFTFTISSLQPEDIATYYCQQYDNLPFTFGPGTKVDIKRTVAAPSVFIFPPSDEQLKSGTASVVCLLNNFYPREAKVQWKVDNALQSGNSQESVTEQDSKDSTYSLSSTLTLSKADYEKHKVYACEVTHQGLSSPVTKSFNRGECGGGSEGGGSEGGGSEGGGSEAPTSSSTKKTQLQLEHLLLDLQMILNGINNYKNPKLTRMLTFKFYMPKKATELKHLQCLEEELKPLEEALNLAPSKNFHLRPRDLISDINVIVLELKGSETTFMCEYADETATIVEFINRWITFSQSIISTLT
notes: also called TL2DSGAB7
B3: IL2DSGAB8 (other)
heavy: QVQLVQSGGGVVQSGRSLRLSCAASGFTFSDYAMHWVRQAPGKGLEWVAVISHGGTKKYTGDSVKGRFIISRDNSKNTVFLQMNSLRVEDTAVYYCARDRVEGYVWGGTFDHWGQGTPVTVSSASTKGPSVFPLAPSSKSTSGGTAALGCLVKDYFPEPVTVSWNSGALTSGVHTFPAVLQSSGLYSLSSVVTVPSSSLGTQTYICNVNHKPSNTKVDKKVEPKSCDKTHTCPPCPAPEAAGAPSVFLFPPKPKDTLMISRTPEVTCVVVDVSHEDPEVKFNWYVDGVEVHNAKTKPREEQYNSTYRVVSVLTVLHQDWLNGKEYKCKVSNKALPAPIEKTISKAKGQPREPQVYTLPPSREEMTKNQVSLTCLVKGFYPSDIAVEWESNGQPENNYKTTPPVLDSDGSFFLYSKLTVDKSRWQQGNVFSCSVMHEALHNHYTQKSLSLSPG
light: ELVLTQPPSVPVAPGQTANISCGGNNIGRQTVHWYQQKPGQAPVLVVFDDSDRPAGIPERFSGSNSGNTATLTISRVEAGDEADYYCQVWDSSSDHVVFGGGTQLTVLGQPKAAPSVTLFPPSSEELQANKATLVCLISDFYPGAVTVAWKADSSPVKAGVETTTPSKQSNNKYAASSYLSLTPEQWKSHRSYSCQVTHEGSTVEKTVAPTECSAEEEKAEEEKAEEEKAEEEKAPTSSSTKKTQLQLEHLLLDLQMILNGINNYKNPKLTRMLTFKFYMPKKATELKHLQCLEEELKPLEEALNLAPSKNFHLRPRDLISDINVIVLELKGSETTFMCEYADETATIVEFINRWITFSQSIISTLT
B4: PD1DSGAB3 (bispecific antibody, human IgG1, kappa)
heavy: QVQLVQSGAEVKKPGASVKVSCKASGYSFTTYYMHWVRQAPGQGLEWMGIINPSGGSTSYAQKFQGRVTMTRDTSTSTVYMELSSLRSEDTAVYYCASGWVYWGQGTLVTVSSASTKGPSVFPLAPSSKSTSGGTAALGCLVKDYFPEPVTVSWNSGALTSGVHTFPAVLQSSGLYSLSSVVTVPSSSLGTQTYICNVNHKPSNTKVDKKVEPKSCDKTHTCPPCPAPEAAGAPSVFLFPPKPKDTLMISRTPEVTCVVVDVSHEDPEVKFNWYVDGVEVHNAKTKPREEQYNSTYRVVSVLTVLHQDWLNGKEYKCKVSNKALPAPIEKTISKAKGQPREPQVYTLPPSREEMTKNQVSLTCLVKGFYPSDIAVEWESNGQPENNYKTTPPVLDSDGSFFLYSKLTVDKSRWQQGNVFSCSVMHEALHNHYTQKSLSLSPGGGGGSGGGGSGGGGSELQMTQSPSSLSASVGDRVTITCQASQDIGNYLNWYQQKPGKAPKLLIYDASYLETGVPSRFSGSGSGTDFTFTISSLQPEDIATYYCQQYDNLPFTFGPGTKVDIKGGGGSGGGGSGGGGSGGGGSEVQLVESGGGLVQPGRSLRLSCAASGFTFDDYAMHWVRQAPGKGLEWVSGISWNSGSIDYADSVKGRFTISRDNAKNSLYLQMNSLRVEDTALYYCAKDGSRVFGVGGGFDFWGQGTMVTVSS
light: not shown
notes: Anti-PD-1 agonist human IgG1 with an SD3 anti-desmoglein scFv at the C-terminus of each heavy chain; copies: 2 + 2
B5: IL2DSGAB5 (other)
heavy: QVQLQESGPGPVKPSGTLSLTCGVSGGSISSNHWWTWVRQPPGKGLEWIGEIYHNGSTFLNPSLKSRVTISVDKSNNQFSLKLTSVTAADTAVYYCARGWHRTGFRGYPSHWYFDLWGRGTLVSVSSASTKGPSVFPLAPSSKSTSGGTAALGCLVKDYFPEPVTVSWNSGALTSGVHTFPAVLQSSGLYSLSSVVTVPSSSLGTQTYICNVNHKPSNTKVDKKVEPKSCDKTHTCPPCPAPEAAGAPSVFLFPPKPKDTLMISRTPEVTCVVVDVSHEDPEVKFNWYVDGVEVHNAKTKPREEQYNSTYRVVSVLTVLHQDWLNGKEYKCKVSNKALPAPIEKTISKAKGQPREPQVYTLPPSREEMTKNQVSLTCLVKGFYPSDIAVEWESNGQPENNYKTTPPVLDSDGSFFLYSKLTVDKSRWQQGNVFSCSVMHEALHNHYTQKSLSLSPG
light: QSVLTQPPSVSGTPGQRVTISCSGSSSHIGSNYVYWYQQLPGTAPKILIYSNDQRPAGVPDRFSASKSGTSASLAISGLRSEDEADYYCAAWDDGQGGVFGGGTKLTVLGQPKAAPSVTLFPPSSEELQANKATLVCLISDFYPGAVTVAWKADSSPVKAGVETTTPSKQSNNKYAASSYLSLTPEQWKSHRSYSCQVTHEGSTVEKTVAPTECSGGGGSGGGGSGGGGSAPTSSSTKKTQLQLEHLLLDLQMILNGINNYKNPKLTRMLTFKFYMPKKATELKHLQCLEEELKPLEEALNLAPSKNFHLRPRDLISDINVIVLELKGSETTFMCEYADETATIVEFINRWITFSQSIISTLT
notes: SD1 anti-desmoglein human IgG1 with the IL-2 mutein fused to the C-terminus of the light chain; also called TL2DSGAB5

How the values were obtained:
[1] = biological target: PD-1 on PD-1 reporter Jurkat cells (human, UniProt Q15116 25-288); assay: cell-based or functional assay
Insulin = biological target: T3, Insulin; assay: ELISA, plate coated with insulin 5 ug/mL, test article at 100 nM, anti-human Fc-HRP detection
T3 construct: Plate coat in the polyreactivity ELISA

human PD-1 = biological target: T4, human PD-1 (human, UniProt Q15116 25-167); assay: BLI (Octet), test article captured on anti-human Fc biosensors, human PD-1 as analyte, 1:1 global fit
T4 construct: Soluble analyte in the Octet assay

human DSG-3 [2] = biological target: T1, human DSG-3; assay: bridging ELISA, plate coated with hDSG-3, test article at 1 nM, then his-tagged hCD25 1 ug/mL, anti-His-HRP detection
human DSG-3 [3] = biological target: T1, human DSG-3; assay: bridging ELISA, plate coated with hDSG-3, test article at 10 nM, then his-tagged hCD25 1 ug/mL, anti-His-HRP detection
human DSG-3 [4] = biological target: T1, human DSG-3; assay: bridging ELISA, plate coated with hDSG-3, test article at 100 nM, then his-tagged hCD25 1 ug/mL, anti-His-HRP detection
human CD25 = biological target: T2, human CD25; assay: BLI (Octet), test article captured on anti-human Fc biosensors, 1:1 global fit (method text names desmogleins as analyte; result told for human CD25)

T4 sequence (Q15116 25-167 limits assumed): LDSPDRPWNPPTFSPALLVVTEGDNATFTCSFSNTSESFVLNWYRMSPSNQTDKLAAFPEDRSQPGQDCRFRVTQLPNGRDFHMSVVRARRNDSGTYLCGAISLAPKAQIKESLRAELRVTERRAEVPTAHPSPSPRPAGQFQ
Sequence of PD-1 on PD-1 reporter Jurkat cells (Q15116 25-288): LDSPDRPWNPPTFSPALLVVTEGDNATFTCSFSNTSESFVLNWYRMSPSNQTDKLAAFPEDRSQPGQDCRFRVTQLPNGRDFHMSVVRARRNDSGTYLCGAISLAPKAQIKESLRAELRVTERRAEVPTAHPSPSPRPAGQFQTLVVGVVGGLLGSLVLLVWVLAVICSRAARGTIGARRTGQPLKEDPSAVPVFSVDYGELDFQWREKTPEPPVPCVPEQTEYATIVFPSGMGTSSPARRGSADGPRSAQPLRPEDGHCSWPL

Binder	SHP-2 recruitment in PD-1 reporter Jurkat cells (test article on anti-human IgG coated plate), EC50 at 2 hours [1] [nM]	SHP-2 recruitment in PD-1 reporter Jurkat cells (test article on anti-human IgG coated plate), EC50 at 24 hours [1] [nM]	Insulin polyreactivity score (Insulin)	Kd (human PD-1) [nM]	absorbance (OD450 nm) (human DSG-3 [2])	absorbance (OD450 nm) (human DSG-3 [3])	absorbance (OD450 nm) (human DSG-3 [4])	Kd (human CD25) [nM]
B1	107	11.2	1.3	123				
B2					0.36	0.55	1.2	3.5
B3					0.29	0.41	1	3.5
B4			1.7	328				
B5					0.27	0.483	0.965	3.4
